Consider nine molecules from publication PMC4164784, “4E-BPs require non-canonical 4E-binding motifs and a lateral surface of eIF4E to repress translation” (Nature Communications, 2014).

The target in assay [1] is T1, Dm eIF4E (residues 69–248, WT) (Drosophila melanogaster, UniProt P48598).
T1 construct: The truncated His6-eIF4E (residues 69–248) that was used in the ITC experiments; His6 (N, cleaved yes); made in house; host or cells: E. coli BL21 Star (DE3)
T1 sequence (P48598 69-248 isoform P48598-2): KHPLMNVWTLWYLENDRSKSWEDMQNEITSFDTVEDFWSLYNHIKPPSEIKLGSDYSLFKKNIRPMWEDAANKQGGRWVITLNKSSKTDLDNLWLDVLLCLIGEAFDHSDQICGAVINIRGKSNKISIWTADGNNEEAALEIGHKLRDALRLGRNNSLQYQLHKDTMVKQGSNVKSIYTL
Put plainly: ITC, binding to eIF4E (WT, residues 69–248). Particulars: for KD: VP-ITC, 20 mM Na-phosphate (pH 7.0), 150 mM NaCl, GB1-fused peptides (C+NC 10 μM, C 50 μM, L+NC 100 μM CUP or 200 μM Thor and 4E-T, eIF4G 20 μM) into eIF4E WT 1–20 μM, one-site model, each experiment repeated twice, nb = no binding; for KD / Molar ratio / TΔS / ΔG / ΔH: 20 °C; for Molar ratio / TΔS / ΔG / ΔH: eIF4E WT (69–248), pH 7.0, nb = no binding. On the procedure: Unless indicated otherwise, all the proteins were expressed in E. coli BL21 Star (DE3) cells (Invitrogen) that were grown in LB medium overnight at 20 °C. The lysis buffers were supplemented with DNaseI (5 μg ml^−1), lysozyme (1 mg ml^−1) and protease inhibitor cocktail (Roche). The truncated His6-eIF4E (residues 69–248) that was used in the ITC experiments and in Figs 2c and 5b was purified in lysis buffer containing 50 mM HEPES (pH 7.2), 300 mM NaCl, 20 mM imidazole and 2 mM β-mercaptoethanol using Ni^2+-affinity chromatography (HisTrap HP 5 ml, GE Healthcare) and eluted with a gradient of 20–500 mM imidazole. After the cleavage of the His6-tag with HRV3C protease (homemade), the protein was further purified using a heparin column (HiTrap Heparin HP 5 ml, GE Healthcare), followed by size exclusion chromatography (Superdex 75 16/60, GE Healthcare) in 20 mM Na-phosphate (pH 7.0), 300 mM NaCl and 2 mM dithiothreitol (DTT).
For the ITC measurements and the competition assays shown in Figs 4 and 5d–g, the 4E-BP peptides corresponding to the canonical (C) motifs, the combined (C+NC) motifs or L+NC were expressed with an HRV3C cleavable N-terminal MBP-tag and a non-cleavable C-terminal GB1 domain. The cells were lysed by sonication in lysis buffer containing 50 mM HEPES (pH 7.2), 300 mM NaCl and 2 mM DTT. The proteins were purified from the cleared lysates using amylose resin (New England Biolabs) followed by the cleavage of the MBP tag with HRV3C protease overnight at 4 °C. The proteins were further purified by size exclusion chromatography (Superdex 75 16/60, GE Healthcare) in 20 mM Na-phosphate (pH 7.0), 300 mM NaCl and 2 mM DTT. For the eIF4G fragment (residues 578–650) the MBP was removed after cleavage with TEV protease through an additional anion exchange chromatography (HiTrap Q HP 5 ml, GE Healthcare) before the final gel filtration.
The ITC experiments were performed using a VP-ITC microcalorimeter (MicroCal) at 20 °C. The solution of eIF4E (residues 69–248, WT or mutant: 1–20 μM) in the calorimetric cell was titrated with tenfold concentrated solutions of GB1-stabilized peptides corresponding to 4E-BPs C+NC (10 μM), C (50 μM), L+NC (100 μM CUP, 200 μM Thor and 4E-T) or eIF4G (residues 578–650, 20 μM) that were dissolved in the same buffer (20 mM Na-phosphate (pH 7.0) and 150 mM NaCl). The titration experiments consisted of an initial injection of 2 μl followed by 28 injections of 10 μl at an interval of 240 s. Each binding experiment was repeated twice. The thermodynamic parameters were estimated using a one-site binding model (Origin version 7.0), whereby the datapoint of the first injection was removed for the analysis.
(d) minimal regions for binding to eIF4E (wild-type (WT), residues 69–248). The top panels represent the raw data (μcal sec−1) whereas the bottom panels show the integrated data (kcal mole−1 of injectant) of heat changes that were best-fitted using a one-site binding model. The thermodynamic parameters correspond to heat changes that were detected when 4E-BPs (10 µM) or eIF4G (20 µM) were injected into the calorimetric cell (1.4 mL) containing 1 µM (a,b,c) or 2 µM (d) eIF4E.
Supplementary Figure 4. Thermodynamic parameters for the interaction of eIF4E with 4E-BP peptides. (a–f) ITC profiles for the interaction of eIF4E (WT, residues 69-248) and CUP (a,d), Thor (b,e) and 4E-T (c,f) peptides containing only the canonical motifs (a–c) or the L+NC regions (d–f). The measurements were performed as described in Supplementary
Fig. 3. The solutions contained the peptides corresponding to the canonical motifs (50 µM) or the L+NC regions (100 µM for CUP and 200 µM for Thor and 4E-T). The eIF4E concentration in the calorimetric cell was 5 µM (for the C peptides), 10 µM (for CUP L+NC) and 20 µM (for Thor and 4E-T L+NC peptides).
(1 picture or pasted object on this page, not shown here)
On the technique in general: In ITC the heat of successive injections is recorded.

Assay [2] relates to endogenous eIF4E and HA-tagged 4E-BPs in S2 cells. Put plainly: Immunofluorescence localization in S2 cells. The assay is classed as cell-based, Drosophila melanogaster. Particulars: −LMB. On the procedure:
S2 cells expressing HA-tagged versions of CUP, Thor and 4E-T or the indicated mutants were treated with Leptomycin B (100 nM; Sigma) or methanol as a control for 12 h. After the LMB treatment, the cells were allowed to adhere to poly-D-lysine–coated coverslips for 15 min and were fixed with 2% paraformaldehyde for 10 min. The cells were then permeabilized with 0.1% Triton X-100 in PBS (10 min) and stained with affinity-purified monoclonal anti-HA (Covance 1:1,000) and polyclonal anti-eIF4E (1:2,000) antibodies in PBS containing 1% BSA for 1 h. Alexa Fluor 594-labeled goat anti-rabbit and 488-labeled anti-mouse antibodies (Invitrogen) were used at dilutions of 1:1,000 and 1:2,000, respectively. The cells were mounted using Fluoromount-G (Southern Biotech). The images were acquired at room temperature using a confocal microscope (TCS SP2; Leica) that was fitted with a Plan-Apochromat × 100 NA 1.40 oil immersion objective and a series of three photomultipliers (Hamamatsu Photonics) controlled with the Leica confocal software (version 2.61). The images were prepared using Photoshop (Adobe). […]
Thor) independent experiments. […] Confocal fluorescent […]
micrographs of fixed S2 cells expressing HA-4E-T and GFP-Tral. The localization of HA-4E-T was determined by indirect immunofluorescence using an anti-HA antibody. The merged pictures show the HA signal in red and the GFP-Tral signal in green. Bar: 5 μm.

Assay [3] concerns the target T2, eIF4E (residues 69–248), purified (Drosophila melanogaster, UniProt P48598-2 69-248).
T2 construct: eIF4E, Drosophila melanogaster, residues 69–248; the methods say the tag was cleaved with HRV3C; also called truncated eIF4E; eIF4E trunc; not shown: His6, N-terminal, cleaved
T2 sequence (looked up): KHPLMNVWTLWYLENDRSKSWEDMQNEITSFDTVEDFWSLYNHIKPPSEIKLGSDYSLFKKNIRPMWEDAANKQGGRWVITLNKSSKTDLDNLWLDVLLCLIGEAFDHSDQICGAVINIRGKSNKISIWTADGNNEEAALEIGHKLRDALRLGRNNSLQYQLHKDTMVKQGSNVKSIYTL
Description: ITC; VP-ITC, 20 °C; eIF4E (69–248, WT or mutant, 1–20 μM) in the cell, tenfold concentrated GB1-stabilized peptides titrated in; 20 mM Na-phosphate pH 7.0, 150 mM NaCl; one-site binding model. The conditions noted are these: both partners purified.

The test system of a further assay is endogenous eIF4E. Description: Coimmunoprecipitation / m7GTP pull-down with endogenous eIF4E in S2 cell lysates. Particulars: western blot. Format: cell-based, Drosophila melanogaster. On the procedure:
The coimmunoprecipitations assays were performed as previously described. For the pull downs using m^7GTP beads, 25 μl of immobilized γ-aminophenyl-m^7GTP (C10-spacer—Jena Bioscience) beads was added to the cell lysates and the mixtures were rotated for 1 h at 4 °C. The beads were washed three times with NET buffer (50 mM Tris (pH 7.4), 150 mM NaCl, 1 mM EDTA and 0.1% Triton X-100). The bound proteins were eluted with 2 × SDS–polyacrylamide gel electrophoresis (SDS–PAGE) sample buffer and analyzed by western blotting (WB). All of the WB experiments were developed with the ECL western blotting detection system (GE Healthcare) as recommended by the manufacturer. The antibodies used in this study are listed in Supplementary Table 2.
Thor and 4E-T) or HA-eIF4G and endogenous eIF4E in S2 cell lysates. The proteins were immunoprecipitated using a polyclonal anti-eIF4E antibody (α-4E). The pre-immune (Pre-I) serum and an HA-tagged version of MBP served as negative controls. The inputs (1%) and immunoprecipitates (10%) were analyzed by western blotting using anti-HA and anti-eIF4E antibodies. (b,c) The interaction of HA-tagged full length 4E-BPs (CUP, Thor and 4E-T) and eIF4G with endogenous eIF4E was analyzed by coimmunoprecipitation using anti-HA antibodies (b) or by pull-down using m7GTP-Sepharose beads (c). HA-MBP served as a negative control. The inputs (10%) and immunoprecipitates (30%) were analyzed by western blotting using anti-HA and anti-eIF4E antibodies. (d) Western blot showing the interaction of HA-Thor (full-length either wild-type or mutants) with endogenous eIF4E in S2 cells. The proteins were immunoprecipitated using anti-HA antibodies and analyzed as described in (b,c). (e) Western blot showing the interaction of HA-4E-T (residues 1–511, wild-type or mutants) with endogenous eIF4E. The proteins were immunoprecipitated using anti-HA antibodies and analyzed as described in (b,c). The size markers (kDa) are shown to the right of each panel. Mutants are described in Supplementary Table 1.
(Immunoblotting shows a protein as a band on a membrane.)

No end group written: not given here.

Broadly, the Kd is the concentration at which binding is half-saturated. A high value points to weaker binding. What is called stoichiometry N is a count of units in the complex or per binding partner.

Regarding “4E-T L+NC: 4E-T residues 22–44, linker+non-canonical”, in assay [1], the KD result is recorded as “nb”, the Molar ratio entry is on record as “nb”, the TΔS result was “nb” and the ΔG entry is given as “nb”. Further, in assay [1], the ΔH entry is on record as “nb”.
For “4E-T NC: 4E-T residues 31–44, non-canonical motif”, in assay [2] (S2 cells overexpressing 4E-BP or mutant), the “localization of endogenous eIF4E (in words)” value is “the number of eIF4E-positive P-bodies was reduced”. For the same molecule, the “localization of the 4E-BP (in words)” value in assay [2] (S2 cells, steady-state) is “still localized to P-bodies”.
For “CUP L+NC: CUP residues 342–376, linker+non-canonical, C-terminal GB1 (ALMHRSKESFVMPRIATCDDIELEGRLRRMNIWRT-GB1; UniProt Q9VMA3 342-376, looked up, fragment)”, in assay [1] (eIF4E WT), the “KD of L+NC relative to C motif (in words)” value is “comparable to that of the C motif” and the “binding thermodynamics (in words)” value is on record as “enthalpically driven”. In assay [1], the TΔS was -9.1 kcal/mol and the ΔG was -9.38 kcal/mol. Besides, the “interaction with eIF4E (in words)” value in assay [1] (eIF4E WT, L+NC peptides) is reported as “interacted with eIF4E at detectable levels”.
Take “Thor L+NC: Thor residues 64–83, linker+non-canonical”: in assay [1], the KD result is recorded as “nb”, the Molar ratio entry is listed as “nb”, the TΔS result is listed as “nb” and the ΔG entry is “nb”. In assay [1], the ΔH result is recorded as “nb”.
As for RYSKVDLLALRYE (domain or fragment) [4E-T C peptide fused C-terminally to GB1], in assay [3], the Kd was 16 nM, the dH is -18.6 ± 0.7 kcal/mol and the “stoichiometry N” value was determined as 0.95 ± 0.01.
As to KSYTRSRLMDIRNGMFN (domain or fragment) [CUP C peptide fused C-terminally to GB1], in assay [3], the Kd was determined as 160 nM, the dH was -16.84 ± 0.04 kcal/mol and the “stoichiometry N” value came out at 1.01 ± 0.01.

B1: Thor R,G,T: Thor R81A, G82A, T83A (protein, UniProt Q9XZ56 1-117, looked up, variant R81A G82A T83A)
Eukaryotic translation …: MSASPTARQAITQALPMITRKVVISDPIQMPEVYSSTPGGTLYSTTPGGTKLIYERAFMKNLRGSPLSQTPPSNVPSCLLAAAPRTPFRKCVPVPTELIKQTKSLKIEDQEQFQLDL
With B1, the “interaction with endogenous eIF4E (in words)” value in the assay with endogenous eIF4E is given as “ineffective”.
In the case of ALMHRSKESFVMPRIATCDDIELEGRLRRMNIWRT (domain or fragment) [CUP L+NC peptide fused C-terminally to GB1], in assay [3], binding was put at a Kd of 103 nM, the dH was -18.5 ± 0.2 kcal/mol and the “stoichiometry N” value was determined as 0.98 ± 0.01.
For TKLIYERAFMKNLR (domain or fragment) [Thor C peptide fused C-terminally to GB1] the same measures were 2260 nM, -12.1 ± 2.8 kcal/mol and 1.06 ± 0.01.
